# Assay results as given in patent US7893197B2, “Relaxin-3 chimeric polypeptides and their preparation and use” (Janssen Pharmaceutica N.V., priority 2005, dated 2011).
# Target: T1, LGR7 (Homo sapiens, UniProt Q9HBX9)
# T1 construct: Human LGR7 cDNA containing the complete coding region was PCR amplified; expressed in transfected cells
# T1 sequence (Q9HBX9 1-757): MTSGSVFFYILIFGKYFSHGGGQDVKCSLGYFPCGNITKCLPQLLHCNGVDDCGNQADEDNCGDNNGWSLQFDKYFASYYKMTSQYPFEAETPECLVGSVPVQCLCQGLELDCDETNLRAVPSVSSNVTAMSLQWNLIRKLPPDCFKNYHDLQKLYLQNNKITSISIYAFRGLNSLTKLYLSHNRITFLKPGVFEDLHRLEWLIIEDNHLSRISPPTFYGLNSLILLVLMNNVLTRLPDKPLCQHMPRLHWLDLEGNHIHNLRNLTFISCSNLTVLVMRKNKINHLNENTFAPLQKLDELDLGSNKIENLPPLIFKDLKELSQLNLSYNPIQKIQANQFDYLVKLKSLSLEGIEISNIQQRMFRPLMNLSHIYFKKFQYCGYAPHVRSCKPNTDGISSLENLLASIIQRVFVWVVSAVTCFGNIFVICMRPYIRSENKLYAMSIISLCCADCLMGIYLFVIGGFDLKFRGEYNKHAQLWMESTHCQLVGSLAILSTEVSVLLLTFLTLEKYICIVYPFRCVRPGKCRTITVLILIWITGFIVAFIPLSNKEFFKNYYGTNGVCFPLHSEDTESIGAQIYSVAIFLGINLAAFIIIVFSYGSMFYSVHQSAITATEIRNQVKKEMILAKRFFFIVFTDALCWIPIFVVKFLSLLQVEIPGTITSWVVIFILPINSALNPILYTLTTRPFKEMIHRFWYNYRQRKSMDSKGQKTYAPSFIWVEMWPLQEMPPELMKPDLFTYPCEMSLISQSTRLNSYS
# Assay: Stimulation of β-galactosidase expression in SK-N-MC/β-gal cells
# Type: cell-based
# Experimental: FIGS. 1A-1D show the activation of GPCR135 and GPCR142 by relaxin-3 B-chain, but not of LGR7 or LGR8. In FIG. 1A, SK-N-MC/β-gal cells expressing human GPCR135 were stimulated with relaxin-3, relaxin-3 B-chain, porcine relaxin, or INSL3 at various concentrations to inhibit the forskolin stimulated β-galactosidase expression. Forskolin was added to cells at a final concentration of 5 μM to stimulate the β-galactosidase expression. FIG. 1B depicts results for SK-N-MC/β-gal cells expressing human GPCR142 stimulated as in FIG. 1A. In FIG. 1C, SK-N-MC/β-gal cells expressing human LGR7 were stimulated with relaxin-3, relaxin-3 B-chain, porcine relaxin, and INSL3 at various concentrations to induce the β-galactosidase expression. The intracellular β-galactosidase activities were measured by a colorimetric assay using CRGP as the substrate and reading the absorbance at a wavelength of 570 nm. For FIG. 1D, SK-N-MC/β-gal cells expressing human LGR8 were stimulated as in FIG. 1C.
# FIGS. 4A-4D illustrate the evaluation of the agonist activity of relaxin-3 chimeric polypeptides in biofunctional assays. Different chimeric polypeptides at various concentrations were added to SK-N-MC/β-gal cells expressing human GPCR135 (FIG. 4A) or GPCR142 (FIG. 4B) to inhibit forskolin stimulated β-galactosidase expression. Human relaxin-3 was used as the positive control. In parallel, chimeric polypeptides at various concentrations were added to SK-N-MC/β-gal cells expressing human LGR7 (FIG. 4C) and LGR8 (FIG. 4D) to stimulate β-galactosidase expression. Relaxin-3 and INSL3 were used as positive controls for LGR7 and LGR8, respectively. Intracellular β-galactosidase activity was measured by a colorimetric assay using CRGP as the substrate and reading the absorbance at wavelength of 570 nm. Data represent mean±SEM (n=3).
# It has been shown that synthetic human relaxin-3 B-chain alone, but not A-chain, is an agonist for both GPCR135 and GPCR142 (Liu et al., 2003, Journal of Biological Chemistry, 278:50754-50764 and Liu et al., 2003, Journal of Biological Chemistry, 278:50765-50770). Those studies were repeated herein in SK-N-MC/β-gal cells, which harbor a β-galactosidase gene under the control of a cAMP responsive element (CRE) (Liu et al., 2001, Molecular Pharmacology, 59:420-426). In such SK-N-MC/β-gal cells, an increase in intracellular cAMP concentration leads to increased β-galactosidase gene expression, the activity of which is measured using Chlorophenol Red-β-D-Galactopyranoside (CPRG) as the substrate.
# The inventive chimeric polypeptides were each independently tested for their ability to activate either GPCR135, GPCR142, LGR7, or LGR8, respectively, in separate pools of SK-N-MC/β-gal cells (see supra), each pool stably expressing one of the respective receptors, as indicated (FIG. 4).
# Cells were seeded in 96-well tissue culture plate at a density of 30,000 cells/well in MEM plus 10% fetal serum, sodium pyruvate, penicillin, streptomycin, and G418 (400 mg/L). For cells expressing GPCR135 or GPCR142, forskolin was added to cells at a final concentration of 5 μM to stimulate intracellular cAMP accumulation. Different concentrations of each of the inventive polypeptides were then added to the cells to inhibit the forskolin induced cAMP accumulation. For cells expressing LGR7 or LGR8, intracellular cAMP was stimulated with each of the inventive chimeric polypeptides at various concentrations.
# For all cells, after adding the chimeric polypeptides, cells were incubated for 6 additional hours in 37° C. incubator. The media was then aspirated and the β-galactosidase activities measured as previously described (Liu et al., 2001, Molecular Pharmacology, 59:420-426). The results were analyzed by Prism 3.0 software. […]
substance,measurement,value
R3/I4: chimeric polypeptide: human relaxin-3 B-chain and INSL4 A-chain; mature polypeptide SEQ ID NO:22 (RAAPYGVRLCGREFIRAVIFTCGGSRWFDPFCCEVICDDGTSVKLC; Human Relaxin-3/Insulin-like 4 chimeric mature polypeptide),"activation of LGR7, in words",no activity
